Source: PMC11321386 (Blood advances, 2024)

Biological target: GPVI-Fc dimer (UniProt Q9HCN6)
Assay: ELISA

- binding result: binds
B1: nanobody 2 (Nb2) (VHH)
VHH: QVQLQESGGGLVQPGGSLRLSCAAAGFTFDYYAIAWFRQAPGKEREGVSCISSSDGTTYYADSVKGRFTISKDNAKNTMYLQMNSLKPEDTAVYYCATSPLYSTNDRCISEDYDYWGQGTQVTVSS
